# Reference: patent US20230242651A1 (published 2023)
# T1: human interleukin-23 receptor (IL23R) (human, UniProt Q5VWK5 24-355, limits assumed)
# T1 construct: also called human IL23R
# T1 sequence (looked up): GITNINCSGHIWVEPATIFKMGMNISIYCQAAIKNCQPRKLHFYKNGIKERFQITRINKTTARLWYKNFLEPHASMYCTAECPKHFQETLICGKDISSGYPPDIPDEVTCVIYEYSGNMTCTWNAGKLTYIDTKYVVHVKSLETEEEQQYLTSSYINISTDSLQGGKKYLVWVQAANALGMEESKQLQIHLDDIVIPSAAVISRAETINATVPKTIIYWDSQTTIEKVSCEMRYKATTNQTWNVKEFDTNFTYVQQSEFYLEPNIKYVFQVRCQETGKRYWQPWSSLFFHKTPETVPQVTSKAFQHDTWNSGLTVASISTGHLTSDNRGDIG
# Columns and labels:
# [1] = target: T1, human interleukin-23 receptor (IL23R); experiment: SPR, scFv (summary table)
# Outline: (§1)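 Humanized rabbit variable domains were made as single-chain variable fragments (scFv) on consensus germline framework pairs, with or without a λ-cap (Vκ framework IV replaced by a Vλ germline sequence). They were expressed in E. coli as inclusion bodies, solubilized and refolded in a generic refolding buffer. Affinity for human IL23R was measured by surface plasmon resonance, giving rate constants and dissociation constant, or the λ-capped over uncapped dissociation-constant ratio.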
# [2] = target: T1, human interleukin-23 receptor (IL23R); experiment: SPR, scFv
# Outline: as §1
Binder,Kd [1],Kd [2],koff [2],kon [2]
"Vκ1/VH1A consensus (uncapped), human IL23R specific scFv (scFv, scFv VL-linker-VH, made in E. coli; Vκ framework IV (uncapped, full consensus); also called Vκ1VH1A uncapped) scFv: DIQMTQSPSSLSASVGDRVTITCQASENIYSFLAWYQQKPGKAPKLLIYSASKLAAGVPSRFSGSGSGTDFTLTISSLQPEDFATYYCQQTNRYSNPDIYNVFGQGTKVEIKRGGGGSGGGGSGGGGSGGGGSQVQLVQSGAEVKKPGSSVKVSCKASGIDFNSNYYMCWVRQAPGQGLEWMGCIYVGSHVNTYYANWAKGRVTITADESTSTAYMELSSLRSEDTAVYYCATSGSSVLYFKFWGQGTLVTVSS",0.02 nM,0.02 nM,0.000128 s⁻¹,6.42e+06 M⁻¹ s⁻¹
"Vκ1/VH1B consensus (uncapped), human IL23R specific scFv (scFv, scFv VL-linker-VH, made in E. coli; Vκ framework IV (uncapped, full consensus); also called Vκ1VH1B uncapped) scFv: DIQMTQSPSSLSASVGDRVTITCQASENIYSFLAWYQQKPGKAPKLLIYSASKLAAGVPSRFSGSGSGTDFTLTISSLQPEDFATYYCQQTNRYSNPDIYNVFGQGTKVEIKRGGGGSGGGGSGGGGSGGGGSQVQLVQSGAEVKKPGASVKVSCKASGIDFNSNYYMCWVRQAPGQGLEWMGCIYVGSHVNTYYANWAKGRVTMTRDTSISTAYMELSSLRSEDTAVYYCATSGSSVLYFKFWGQGTLVTVSS",0.168 nM,0.168 nM,0.000413 s⁻¹,2.45e+06 M⁻¹ s⁻¹
"Vκ3/VH3 consensus (uncapped), human IL23R specific scFv (scFv, scFv VL-linker-VH, made in E. coli; Vκ framework IV (uncapped, full consensus); also called Vκ3VH3 uncapped) scFv: DIVLTQSPATLSLSPGERATLSCQASENIYSFLAWYQQKPGQAPRLLIYSASKLAAGVPARFSGSGSGTDFTLTISSLEPEDFAVYYCQQTNRYSNPDIYNVFGQGTKVEIKRGGGGSGGGGSGGGGSGGGGSEVQLVESGGGLVQPGGSLRLSCAASGIDFNSNYYMCWVRQAPGKGLEWVSCIYVGSHVNTYYANWAKGRFTISRDNSKNTLYLQMNSLRAEDTAVYYCATSGSSVLYFKFWGQGTLVTVSS",0.0395 nM,0.0395 nM,6.52e-05 s⁻¹,1.65e+06 M⁻¹ s⁻¹
"Vκ3/VH4 consensus (uncapped), human IL23R specific scFv (scFv, scFv VL-linker-VH, made in E. coli; Vκ framework IV (uncapped, full consensus); also called Vκ3VH4 uncapped) scFv: DIVLTQSPATLSLSPGERATLSCQASENIYSFLAWYQQKPGQAPRLLIYSASKLAAGVPARFSGSGSGTDFTLTISSLEPEDFAVYYCQQTNRYSNPDIYNVFGQGTKVEIKRGGGGSGGGGSGGGGSGGGGSQVQLQESGPGLVKPSETLSLTCTVSGIDFNSNYYMCWIRQPPGKGLEWIGCIYVGSHVNTYYANWAKGRVTISVDTSKNQFSLKLSSVTAADTAVYYCATSGSSVLYFKFWGQGTLVTVSS",0.139 nM,0.139 nM,0.000263 s⁻¹,1.89e+06 M⁻¹ s⁻¹
"Vκ3/VH5 consensus (uncapped), human IL23R specific scFv (scFv, scFv VL-linker-VH, made in E. coli; Vκ framework IV (uncapped, full consensus); also called Vκ3VH5 uncapped) scFv: DIVLTQSPATLSLSPGERATLSCQASENIYSFLAWYQQKPGQAPRLLIYSASKLAAGVPARFSGSGSGTDFTLTISSLEPEDFAVYYCQQTNRYSNPDIYNVFGQGTKVEIKRGGGGSGGGGSGGGGSGGGGSEVQLVQSGAEVKKPGESLKISCKGSGIDFNSNYYMCWVRQMPGKGLEWMGCIYVGSHVNTYYANWAKGQVTISADKSISTAYLQWSSLKASDTAMYYCATSGSSVLYFKFWGQGTLVTVSS",0.525 nM,0.525 nM,0.000904 s⁻¹,1.72e+06 M⁻¹ s⁻¹
"Vκ3/VH6 consensus λ-capped, human IL23R specific scFv (scFv, scFv VL-linker-VH, made in E. coli; also called Vκ3VH6 capped) scFv: DIVLTQSPATLSLSPGERATLSCQASENIYSFLAWYQQKPGQAPRLLIYSASKLAAGVPARFSGSGSGTDFTLTISSLEPEDFAVYYCQQTNRYSNPDIYNVFGGGTKLTVLGGGGGSGGGGSGGGGSGGGGSQVQLQQSGPGLVKPSQTLSLTCAISGIDFNSNYYMCWIRQSPGRGLEWLGCIYVGSHVNTYYANWAKGRITINPDTSKNQFSLQLNSVTPEDTAVYYCATSGSSVLYFKFWGQGTLVTVSS",0.394 nM,0.394 nM,0.000563 s⁻¹,1.43e+06 M⁻¹ s⁻¹
"Vκ1/VH2 consensus (uncapped), human IL23R specific scFv (scFv, scFv VL-linker-VH, made in E. coli; Vκ framework IV (uncapped, full consensus); also called Vκ1VH2 uncapped) scFv: DIQMTQSPSSLSASVGDRVTITCQASENIYSFLAWYQQKPGKAPKLLIYSASKLAAGVPSRFSGSGSGTDFTLTISSLQPEDFATYYCQQTNRYSNPDIYNVFGQGTKVEIKRGGGGSGGGGSGGGGSGGGGSQVQLKESGPALVKPTQTLTLTCTFSGIDFNSNYYMCWIRQPPGKALEWLACIYVGSHVNTYYANWAKGRLTISKDTSKNQVVLTMTNMDPVDTATYYCATSGSSVLYFKFWGQGTLVTVSS",0.211 nM,0.211 nM,0.000333 s⁻¹,1.58e+06 M⁻¹ s⁻¹
